Target: Human α-thrombin (Haematologic Technologies, Inc.) (human)
Assay: cell-based or functional assay

“Antithrombin (Grifols Therapeutics Inc.) (from UniProt P01008 33-464)” gave a time to completion of the fluorescence increase (dissociation of the TBA15-F9+TBA29-D9+thrombin complex) after adding 1940 nM ATIII to 200 nM complex of 600 s.
